Entries after “also recorded” stand apart in the source; their conditions may differ.
B1: Feline 15H05 1.1: felinized 15H05, FEL_15H05_VH1 with FEL_15H05_VL1 (antibody, V domains shown)
VH: QVLLVQSGAEVRTPGASVKIFCKASGYSFTSYTIHWLRQAPAQGLEWMGNINPTSGYTENNQRFKDRLTLTADTSTNTAYMELSSLRSADTAMYYCARWGFKYDGEWSFDVWGAGTTVTVSS
VL: EIQMTQSPSSLSASPGDRVTITCRASQGISIWLSWYQQKPGKVPKLLIYKASNLHIGVPSRFSGSGSGTDFTLTISSLEPEDAATYYCLQSQTYPLTFGGGTKLEIK
B2: Feline 15H05 1.1 FW1: FEL_15H05_VH1 with FEL_15H05_VL1_FW1 (antibody, V domains shown)
VH: QVLLVQSGAEVRTPGASVKIFCKASGYSFTSYTIHWLRQAPAQGLEWMGNINPTSGYTENNQRFKDRLTLTADTSTNTAYMELSSLRSADTAMYYCARWGFKYDGEWSFDVWGAGTTVTVSS
VL: DIQMNQSPSSLSASLGDTITVTCRASQGISIWLSWYQQKPGKVPKLLIYKASNLHIGVPSRFSGSGSGTDFTLTISSLEPEDAATYYCLQSQTYPLTFGGGTKLEIK
B3: Feline 15H05_VH1 mouse VL: heterochimeric antibody, FEL_15H05_VH1 with MU_15H05_VL (antibody, V domains shown)
VH: QVLLVQSGAEVRTPGASVKIFCKASGYSFTSYTIHWLRQAPAQGLEWMGNINPTSGYTENNQRFKDRLTLTADTSTNTAYMELSSLRSADTAMYYCARWGFKYDGEWSFDVWGAGTTVTVSS
VL: DIQMNQSPSSLSASLGDTITVTCRASQGISIWLSWYQQKPGNIPKVLINKASNLHIGVPPRFSGSGSGTHFTLTITSLQPEDIATYYCLQSQTYPLTFGGGTKLEIN
B4: Feline 15H05 1.1 FW2: FEL_15H05_VH1 with FEL_15H05_VL1_FW2 (antibody, V domains shown)
VH: QVLLVQSGAEVRTPGASVKIFCKASGYSFTSYTIHWLRQAPAQGLEWMGNINPTSGYTENNQRFKDRLTLTADTSTNTAYMELSSLRSADTAMYYCARWGFKYDGEWSFDVWGAGTTVTVSS
VL: EIQMTQSPSSLSASPGDRVTITCRASQGISIWLSWYQQKPGNIPKVLINKASNLHIGVPSRFSGSGSGTDFTLTISSLEPEDAATYYCLQSQTYPLTFGGGTKLEIK
B5: Feline 15H05 1.1 FW1_3: FEL_15H05_VH1 with FEL_15H05_VL1_FW1_FW3 (antibody, V domains shown)
VH: QVLLVQSGAEVRTPGASVKIFCKASGYSFTSYTIHWLRQAPAQGLEWMGNINPTSGYTENNQRFKDRLTLTADTSTNTAYMELSSLRSADTAMYYCARWGFKYDGEWSFDVWGAGTTVTVSS
VL: DIQMNQSPSSLSASLGDTITVTCRASQGISIWLSWYQQKPGKVPKLLIYKASNLHIGVPPRFSGSGSGTHFTLTITSLQPEDIATYYCLQSQTYPLTFGGGTKLEIK
B6: Feline 15H05_VH3 mouse VL: heterochimeric antibody, FEL_15H05_VH3 with MU_15H05_VL (antibody, V domains shown)
VH: QVLLVQSGAEVRKPGASVKIFCKASGYSFTSYTIHWLRQAPEQGLEWMGNINPTSGYTENNQRFKDRLTLTADTSTNTAYMELSSLRSADTAMYYCARWGFKYDGEWSFDVWGAGTTVTVSS
VL: DIQMNQSPSSLSASLGDTITVTCRASQGISIWLSWYQQKPGNIPKVLINKASNLHIGVPPRFSGSGSGTHFTLTITSLQPEDIATYYCLQSQTYPLTFGGGTKLEIN
B7: Feline 15H05 1.1_FW1_2: FEL_15H05_VH1 with FEL_15H05_VL1_FW1_FW2 (antibody, V domains shown)
VH: QVLLVQSGAEVRTPGASVKIFCKASGYSFTSYTIHWLRQAPAQGLEWMGNINPTSGYTENNQRFKDRLTLTADTSTNTAYMELSSLRSADTAMYYCARWGFKYDGEWSFDVWGAGTTVTVSS
VL: DIQMNQSPSSLSASLGDTITVTCRASQGISIWLSWYQQKPGNIPKVLINKASNLHIGVPSRFSGSGSGTDFTLTISSLEPEDAATYYCLQSQTYPLTFGGGTKLEIK
B8: Feline 15H05 3.2: felinized 15H05, FEL_15H05_VH3 with FEL_15H05_VL2 (antibody, V domains shown)
VH: QVLLVQSGAEVRKPGASVKIFCKASGYSFTSYTIHWLRQAPEQGLEWMGNINPTSGYTENNQRFKDRLTLTADTSTNTAYMELSSLRSADTAMYYCARWGFKYDGEWSFDVWGAGTTVTVSS
VL: EITMTQSPGSLAGSPGQQVTMNCRASQGISIWLSWYQQKPGQHPKLLIYKASNLHIGVPDRFSGSGSGTDFTLTISNLQAEDVASYYCLQSQTYPLTFGGGTKLEIK
B9: Feline 15H05 2.2: felinized 15H05, FEL_15H05_VH2 with FEL_15H05_VL2 (antibody, V domains shown)
VH: QVLLVQSGAEVRTPGASVKIFCKASGYGFTSYTIHWVRQSPAQGLEWMGNINPTSGYTENNQRFKDRLTLTADTSTNTAYMELSSLRSADTAMYYCARWGFKYDGEWSFDVWGAGTTVTVSS
VL: EITMTQSPGSLAGSPGQQVTMNCRASQGISIWLSWYQQKPGQHPKLLIYKASNLHIGVPDRFSGSGSGTDFTLTISNLQAEDVASYYCLQSQTYPLTFGGGTKLEIK
B10: Feline 15H05 1.1 FW3: FEL_15H05_VH1 with FEL_15H05_VL1_FW3 (antibody, V domains shown)
VH: QVLLVQSGAEVRTPGASVKIFCKASGYSFTSYTIHWLRQAPAQGLEWMGNINPTSGYTENNQRFKDRLTLTADTSTNTAYMELSSLRSADTAMYYCARWGFKYDGEWSFDVWGAGTTVTVSS
VL: EIQMTQSPSSLSASPGDRVTITCRASQGISIWLSWYQQKPGKVPKLLIYKASNLHIGVPPRFSGSGSGTHFTLTITSLQPEDIATYYCLQSQTYPLTFGGGTKLEIK

Tests used:
[1] = biological target: canine IL-31; test: Affinity of anti-IL-31 antibodies by surface plasmon resonance (Biacore), canine IL-31 surface; format: binding; details: IL-31 conjugated to the surface (FIG. 2)
Sequence of canine IL-31 (as listed by the source): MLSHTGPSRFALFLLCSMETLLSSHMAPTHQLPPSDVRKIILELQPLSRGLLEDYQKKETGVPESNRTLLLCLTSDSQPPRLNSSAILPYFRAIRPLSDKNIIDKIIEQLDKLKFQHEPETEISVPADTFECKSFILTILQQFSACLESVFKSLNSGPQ
Procedure: (§1) The affinity with which candidate mAbs bind canine and feline IL-31 was determined using surface plasmon resonance (SPR) on a Biacore system (Biocore Life Sciences (GE Healthcare), Uppsala, Sweden). To avoid affinity differences associated with differential surface preparation that can occur when immobilizing antibodies to surfaces; a strategy was employed where IL-31 was directly conjugated to the surface. Immobilization was obtained by amine coupling 5 μg/mL IL-31 using N-hydroxysuccinimide (NHS)/1-Ethyl-3-(3-dimethylaminopropyl) carbodiimide (EDC) chemistry. Chips were quenched with ethanolamine and the affinity with which all candidate mAbs bound to the immobilized IL-31 was evaluated. All curves were fit to a 1:1 model. Affinity constants (KD) less than 1×10^−11M (1E-11 M) are below the lower limit of quantitation of detection for the instrument. Results for affinity measurements are described herein.

[2] = biological target: feline IL-31; test: Affinity of anti-IL-31 antibodies by surface plasmon resonance (Biacore), feline IL-31 surface; format: binding; details: IL-31 conjugated to the surface (FIG. 2)
Sequence of feline IL-31 (as listed by the source): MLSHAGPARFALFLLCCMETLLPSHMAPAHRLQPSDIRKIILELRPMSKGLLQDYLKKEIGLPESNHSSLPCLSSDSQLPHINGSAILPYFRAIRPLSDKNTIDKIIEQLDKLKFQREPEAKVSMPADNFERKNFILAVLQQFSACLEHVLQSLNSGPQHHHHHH
Procedure: as §1

Molecule	affinity (KD) to canine IL-31 [1]	affinity (KD) to feline IL-31 [2]
B1	neutral to positive impact on affinity	–
B2	detrimental to the affinity	detrimental to the affinity
B3	improved affinity	restored the affinity to feline IL-31 to equivalent or better than the mouse and chimeric forms
B4	excellent affinity; also recorded: increased affinity	excellent affinity; also recorded: increased affinity
B5	good affinity	good affinity
B6	improved affinity	restored the affinity to feline IL-31 to equivalent or better than the mouse and chimeric forms
B7	good affinity	good affinity
B8	neutral to positive impact on affinity	–
B9	neutral to positive impact on affinity	–
B10	excellent affinity	excellent affinity
